Test results reported in patent US20160122768A1 (LA JOLLA INSTITUTE FOR ALLERGY AND IMMUNOLOGY, published 2016).

T1: C-terminally HA-tagged wild type (WT) RPTPκ (NM 008983.2), full-length, immunoprecipitated from COS-1 cells (UniProt P35822 26-1457)
T1 construct: It was held on anti-HA immunoprecipitate beads in the assay; also called HA-tagged WT RPTPκ; full-length RPTPk; not shown: C-terminal HA tag
T1 sequence (looked up): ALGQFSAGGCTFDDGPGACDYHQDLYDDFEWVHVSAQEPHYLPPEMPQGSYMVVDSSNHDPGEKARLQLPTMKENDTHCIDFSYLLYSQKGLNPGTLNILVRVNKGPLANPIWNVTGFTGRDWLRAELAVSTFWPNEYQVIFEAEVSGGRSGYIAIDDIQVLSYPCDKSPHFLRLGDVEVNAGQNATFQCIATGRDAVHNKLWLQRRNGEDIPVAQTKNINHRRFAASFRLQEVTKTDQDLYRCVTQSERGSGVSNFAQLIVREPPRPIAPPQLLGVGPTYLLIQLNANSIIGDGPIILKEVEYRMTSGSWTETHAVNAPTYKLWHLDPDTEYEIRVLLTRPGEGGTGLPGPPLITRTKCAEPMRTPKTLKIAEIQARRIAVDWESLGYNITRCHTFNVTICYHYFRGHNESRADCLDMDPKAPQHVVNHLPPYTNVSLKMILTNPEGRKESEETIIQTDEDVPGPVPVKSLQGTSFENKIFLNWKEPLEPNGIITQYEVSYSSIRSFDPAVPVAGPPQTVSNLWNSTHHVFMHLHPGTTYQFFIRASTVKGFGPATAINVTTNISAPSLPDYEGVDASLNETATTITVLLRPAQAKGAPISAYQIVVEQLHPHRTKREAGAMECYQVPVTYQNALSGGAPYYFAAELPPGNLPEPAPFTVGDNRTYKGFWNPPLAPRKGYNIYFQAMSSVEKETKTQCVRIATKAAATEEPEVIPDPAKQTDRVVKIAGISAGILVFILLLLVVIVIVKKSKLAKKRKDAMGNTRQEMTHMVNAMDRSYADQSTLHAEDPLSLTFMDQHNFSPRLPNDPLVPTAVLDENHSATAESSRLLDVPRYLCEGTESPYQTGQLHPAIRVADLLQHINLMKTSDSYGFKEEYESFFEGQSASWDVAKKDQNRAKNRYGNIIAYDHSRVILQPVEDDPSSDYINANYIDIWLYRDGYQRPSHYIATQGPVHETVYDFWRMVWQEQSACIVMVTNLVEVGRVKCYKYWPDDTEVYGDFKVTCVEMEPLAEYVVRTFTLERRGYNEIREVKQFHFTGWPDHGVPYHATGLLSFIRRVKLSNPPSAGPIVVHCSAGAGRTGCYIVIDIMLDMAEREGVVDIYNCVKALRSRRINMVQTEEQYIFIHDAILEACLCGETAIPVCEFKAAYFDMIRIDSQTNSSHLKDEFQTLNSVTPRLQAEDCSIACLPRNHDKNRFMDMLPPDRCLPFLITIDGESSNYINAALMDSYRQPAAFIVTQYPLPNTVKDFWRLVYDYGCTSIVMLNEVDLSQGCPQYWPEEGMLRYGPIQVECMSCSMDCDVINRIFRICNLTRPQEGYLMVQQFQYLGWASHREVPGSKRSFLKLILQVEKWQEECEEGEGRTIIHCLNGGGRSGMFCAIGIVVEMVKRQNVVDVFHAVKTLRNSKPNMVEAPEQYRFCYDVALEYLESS

B1: YES (endogenous, from RA FLS lysates) (enzyme)
chain: not shown
B2: S-tagged-iPTPκ-D1051A, substrate-trapping mutant of the catalytic domain of RPTPκ (aa865-1156 of NP_002835.2) (enzyme, not shown: small tags and cut ends)
chain: HPAIRVADLLQHINLMKTSDSYGFKEEYESFFEGQSASWDVAKKDQNRAKNRYGNIIAYDHSRVILQPVEDDPSSDYINANYIDGYQRPSHYIATQGPVHETVYDFWRMIWQEQSACIVMVTNLVEVGRVKCYKYWPDDTEVYGDFKVTCVEMEPLAEYVVRTFTLERRGYNEIREVKQFHFTGWPAHGVPYHATGLLSFIRRVKLSNPPSAGPIVVHCSAGAGRTGCYIVIDIMLDMAEREGVVDIYNCVKALRSRRINMVQTEEQYIFIHDAILEACLCGETAIPVCEFK
notes: Numbering counts on NP_002835.2, which may differ from the canonical UniProt isoform; also called iPTPk-D1051A; iPTPK-D1051A

Tests used:
[1] = target: T1, C-terminally HA-tagged wild type (WT) …; assay: pull-down of RA FLS lysates with immunoprecipitated HA-tagged RPTPκ, Western blotting
Protocol: In vitro Pull-Down Assay. HA-tagged WT RPTPκ was overexpressed in COS-1 cells. Cells were lysed in THE buffer (20 mM Tris-HCl pH 7.5, 150 mM NaCl, 5 mM EDTA pH 8.0 and 1% NP-40) containing 10 μg/mL aprotinin, 10 μg/mL leupeptin, 10 μg/mL soybean trypsin inhibitor, and 1 mM phenylmethylsulfonyl fluoride. RPTPκ was immunoprecipitated using anti-HA antibody (Covance, Princeton, N.J.). RA FLS were lysed in RIPA buffer containing 10 μg/mL aprotinin, 10 μg/mL leupeptin, 10 μg/mL soybean trypsin inhibitor, 1 mM phenylmethylsulfonyl fluoride and 5 mM iodoacetamide. Lysates were treated with 10 mM dithiothreitol for 10 min, and then diluted 10-fold in buffer containing 25 mM Tris-HCl pH 7.6, 150 mM NaCl and 1 mM ethylenediaminetetraacetic acid. Immunoprecipitates were incubated with RA FLS lysates for 3 hr at 4° C., washed in the dilution buffer, and subjected to Western blotting.
We next investigated if RPTPk directly interacts with and/or dephosphorylates SFKs. HA-tagged RPTPκ was immunoprecipitated from COS-1 cells and incubated in vitro with RA FLS lysates, and pull-down was subjected to Western blotting. Both full-length RPTPk immunoprecipitated from COS-1 cells and a recombinant substrate-trapping mutant of the RPTPk catalytic domain (iPTPk-D1051A) precipitated SRC from RA FLS lysates in pull-down assays, but not YES or FYN (SFKs also expressed in FLS).

[2] = target: FYN (endogenous, from RA FLS lysates) (human, UniProt P06241 2-537, limits assumed); assay: substrate-trapping pull-down of RA FLS lysates with agarose-bound S-tagged iPTPκ-D1051A, Western blotting
FYN (endogenous, from RA FLS lysates), sequence (P06241 2-537 limits assumed): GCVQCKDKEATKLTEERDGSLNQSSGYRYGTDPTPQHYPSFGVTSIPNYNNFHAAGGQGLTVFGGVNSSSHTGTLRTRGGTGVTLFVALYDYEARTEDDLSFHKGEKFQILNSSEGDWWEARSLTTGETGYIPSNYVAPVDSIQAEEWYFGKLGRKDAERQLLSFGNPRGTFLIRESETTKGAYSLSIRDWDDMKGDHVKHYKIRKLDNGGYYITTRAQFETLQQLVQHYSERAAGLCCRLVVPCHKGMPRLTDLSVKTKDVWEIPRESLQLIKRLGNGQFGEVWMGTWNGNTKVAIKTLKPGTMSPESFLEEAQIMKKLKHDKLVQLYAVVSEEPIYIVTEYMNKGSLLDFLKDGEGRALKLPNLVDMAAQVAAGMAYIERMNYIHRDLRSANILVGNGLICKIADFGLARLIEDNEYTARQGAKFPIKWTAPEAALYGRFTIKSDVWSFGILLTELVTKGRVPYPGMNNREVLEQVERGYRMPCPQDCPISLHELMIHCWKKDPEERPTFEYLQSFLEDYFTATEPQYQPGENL
Protocol: (§1) Accordingly, cDNA (codon optimized for expression in E. coli [Genscript, Piscataway, N.J.]) encoding a substrate-trapping mutant of the catalytic domain of RPTPκ (iPTPK-D1051A, aa865-1156 of NP_002835.2) was cloned into the pET30c vector. S-tagged-iPTPK-D1051A was isolated from E. coli using S-protein agarose (EMD Millipore). RA FLS were lysed in RIPA buffer containing 10 μg/mL aprotinin, 10 μg/mL leupeptin, 10 μg/mL soybean trypsin inhibitor, 1 mM phenylmethylsulfonyl fluoride and 5 mM iodoacetamide. Lysates were treated with 10 mM dithiothreitol for 10 min, and then diluted 10-fold in buffer containing 25 mM Tris-HCl pH 7.6, 150 mM NaCl and 1 mM ethylenediaminetetraacetic acid. Agarose-bound S-tagged-iPTPκ-D1051A was incubated with RA FLS lysates for 3 hr at 4° C., washed in the dilution buffer, and subjected to Western blotting.

[3] = target: B1; assay: as above
Protocol: as §1

binding result [1] | binding result [2] | binding result [3] | Binder
no binding | – | – | B1
– | no binding | no binding | B2
